These results are taken from US8455205B2, “Metalloproteinase 9 binding proteins” (Dyax Corp., priority 2008, dated 2013).

Entries after “also recorded” stand apart in the source; their conditions may differ.

Experiment [1] deals with T1, MMP-9 (Homo sapiens, UniProt P14780). The experiment is described as follows: Affinity ranking of Fabs by BIACORE Flexchip (SPR). It is filed as binding. The source says:
Surface Plasmon Resonance (SPR). The interaction of binding protein and a target can be analyzed using SPR. SPR or Biomolecular Interaction Analysis (BIA) detects biospecific interactions in real time, without labeling any of the interactants. Changes in the mass at the binding surface (indicative of a binding event) of the BIA chip result in alterations of the refractive index of light near the surface (the optical phenomenon of surface plasmon resonance (SPR)). The changes in the refractivity generate a detectable signal, which are measured as an indication of real-time reactions between biological molecules. Methods for using SPR are described, for example, in U.S. Pat. No. 5,641,640; Raether, 1988, Surface Plasmons Springer Verlag; Sjolander and Urbaniczky, 1991, Anal. Chem. 63:2338-2345; Szabo et al., 1995, Curr. Opin. Struct. Biol. 5:699-705 and on-line resources provide by BIAcore International AB (Uppsala, Sweden). BIAcore Flexchip can be used to compare and rank interactions in real time, in terms of kinetics, affinity or specificity without the use of labels.
Information from SPR can be used to provide an accurate and quantitative measure of the equilibrium dissociation constant (Kd), and kinetic parameters, including Kon and Koff, for the binding of a binding protein to a target. Such data can be used to compare different biomolecules. For example, selected proteins from an expression library can be compared to identify proteins that have high affinity for the target or that have a slow Koff. This information can also be used to develop structure-activity relationships (SAR). For example, the kinetic and equilibrium binding parameters of matured versions of a parent protein can be compared to the parameters of the parent protein. Variant amino acids at given positions can be identified that correlate with particular binding parameters, e.g., high affinity and slow Koff. This information can be combined with structural modeling (e.g., using homology modeling, energy minimization, or structure determination by x-ray crystallography or NMR). […]
Target sequence in this assay (P14780 94-707): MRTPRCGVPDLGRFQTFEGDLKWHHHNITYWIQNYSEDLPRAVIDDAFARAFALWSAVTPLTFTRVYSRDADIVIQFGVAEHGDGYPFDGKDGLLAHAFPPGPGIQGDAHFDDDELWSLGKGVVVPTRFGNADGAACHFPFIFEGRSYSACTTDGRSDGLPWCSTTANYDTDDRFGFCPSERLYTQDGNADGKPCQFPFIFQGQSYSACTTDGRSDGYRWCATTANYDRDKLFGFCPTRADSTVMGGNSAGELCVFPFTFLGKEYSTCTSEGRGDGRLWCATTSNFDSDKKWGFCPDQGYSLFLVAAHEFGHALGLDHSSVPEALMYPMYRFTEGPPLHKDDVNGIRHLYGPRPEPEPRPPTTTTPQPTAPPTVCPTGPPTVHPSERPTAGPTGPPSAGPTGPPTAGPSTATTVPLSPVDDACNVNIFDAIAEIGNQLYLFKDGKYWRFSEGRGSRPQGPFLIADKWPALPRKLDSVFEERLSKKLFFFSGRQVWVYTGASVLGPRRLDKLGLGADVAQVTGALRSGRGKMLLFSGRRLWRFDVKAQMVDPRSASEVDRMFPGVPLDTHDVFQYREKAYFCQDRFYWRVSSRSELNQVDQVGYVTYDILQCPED
(SPR reads the build-up and loss of mass on a sensor chip optically.)

The next experiment concerns the target T2, mouse MMP-9 (Mus musculus, UniProt P41245).
T2 construct: purchased R&D 909-MM
Nature of the experiment: Inhibition of mouse MMP-9 activity, fluorogenic substrate. It is filed as biochemical. The source says: (§1) The human MMP-1, -2, -3, -7, -8, -9, -10, -12, -13, and -14 were obtained from BIOMOL (Human MMP-9: SE-244, BIOMOL; Human MMP-14: SE-259, BIOMOL; Human MMP-1, -2, -8, -13: MMP MultiPack-1 from BIOMOL; Human MMP-3, -7, -10, -12: MMP MultiPack-2 from BIOMOL). The mouse MMP-2 and -9 were from R&D (Mouse MMP-9: 909-MM, R&D Mouse MMP-2: 924-MP, R&D). The substrate was Mca-Pro-Lys-Pro-Leu-Ala-Leu-Dap(Dnp)-Ala-Arg-NH2 (SEQ ID NO: 951)(M-2225, Bachem) for human MMP-3, and Mca-Lys-Pro-Leu-Gly-Leu-Dap(Dnp)-Ala-Arg-NH2 (SEQ ID NO: 952)(M-2350, Bachem) for all the other enzymes. The substrate concentration in the assay was 10 μM.

The target of another experiment is T3, human MMP-3 (Homo sapiens, UniProt P08254).
T3 construct: purchased BIOMOL MMP MultiPack-2
The experiment is described as follows: MMP selectivity panel, residual enzyme activity. The class given is biochemical. The note with it: FIG. 5. Here is the method:
(§2) After sequencing analysis, the phage display were converted into sFabs and then into IgG1s. Their ability to inhibit MMP-9 and other MMPs (1, 3, 7, 8, 9, 10, 12, 13, 14) was determined by usual means. Compounds were initially screened at 1 μM against MMP-9 and those compounds that inhibited MMP-9>80% were subjected to additional screens against purified recombinant human MMPs. For these additional screens, an IC50 value was determined.
as §1

The next experiment concerns the target T4, human MMP-12 (Homo sapiens, UniProt P39900).
T4 construct: purchased BIOMOL MMP MultiPack-2
The experiment is described as follows: MMP selectivity panel, residual enzyme activity. The note with it: FIG. 5. The class given is biochemical. Here is the method:
as §2, §1

A further experiment addresses T5, human MMP-14 (Homo sapiens, UniProt P50281).
T5 construct: purchased BIOMOL SE-259
The experiment is described as follows: MMP selectivity panel, residual enzyme activity. The note with it: FIG. 5. It is filed as biochemical. As for the experimental part: as §2, §1

The next experiment concerns the target T6, human MMP-8 (Homo sapiens, UniProt P22894).
T6 construct: purchased BIOMOL MMP MultiPack-1
The experiment is described as follows: MMP selectivity panel, residual enzyme activity. It is filed as biochemical. The note with it: FIG. 5. Here is the method: as §2, §1

Experiment [2] concerns the target T1, MMP-9. Nature of the experiment: Inhibition of human MMP-9 activity, fluorogenic peptide substrate (IC50 / residual activity at 1 μM antibody). It is filed as biochemical. Also on record: Human MMP-9 catalytic domain (BIOMOL, SE-244); purchased BIOMOL SE-244. Here is the method:
MMP-9 binding proteins can be characterized in assays that measure their modulatory activity toward MMP-9 or fragments thereof in vitro or in vivo. For example, MMP-9 can be combined with a substrate such as Mca-Pro-Leu-Ala-Cys(Mob)-Trp-Ala-Arg-Dap(Dnp)-NH2 (SEQ ID NO: 12) under assay conditions permitting cleavage by MMP-9. The assay is performed in the absence of the MMP-9 binding protein, and in the presence of increasing concentrations of the MMP-9 binding protein. The concentration of binding protein at which 50% of the MMP-9 activity (e.g., binding to the substrate) is inhibited is the IC50 value (Inhibitory Concentration 50%) or EC50 (Effective Concentration 50%) value for that binding protein.
as §2
Target sequence in this assay (P14780 107-444 limits assumed): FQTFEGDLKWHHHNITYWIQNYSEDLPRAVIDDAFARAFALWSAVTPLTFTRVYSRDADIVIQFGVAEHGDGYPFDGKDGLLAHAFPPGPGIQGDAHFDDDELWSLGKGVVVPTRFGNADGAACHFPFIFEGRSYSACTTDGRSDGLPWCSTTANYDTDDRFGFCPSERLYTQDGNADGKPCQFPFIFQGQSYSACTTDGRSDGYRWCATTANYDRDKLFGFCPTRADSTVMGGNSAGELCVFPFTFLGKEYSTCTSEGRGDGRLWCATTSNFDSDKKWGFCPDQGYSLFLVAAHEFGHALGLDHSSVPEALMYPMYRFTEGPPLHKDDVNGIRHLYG
The human MMP-1, -2, -3, -7, -8, -9, -10, -12, -13, and -14 were obtained from BIOMOL (Human MMP-9: SE-244, BIOMOL; Human MMP-14: SE-259, BIOMOL; Human MMP-1, -2, -8, -13: MMP MultiPack-1 from BIOMOL; Human MMP-3, -7, -10, -12: MMP MultiPack-2 from BIOMOL). […]

The next experiment has as its target T7, human MMP-2 (Homo sapiens, UniProt P08253).
T7 construct: purchased BIOMOL MMP MultiPack-1
T7 sequence (P08253 110-660): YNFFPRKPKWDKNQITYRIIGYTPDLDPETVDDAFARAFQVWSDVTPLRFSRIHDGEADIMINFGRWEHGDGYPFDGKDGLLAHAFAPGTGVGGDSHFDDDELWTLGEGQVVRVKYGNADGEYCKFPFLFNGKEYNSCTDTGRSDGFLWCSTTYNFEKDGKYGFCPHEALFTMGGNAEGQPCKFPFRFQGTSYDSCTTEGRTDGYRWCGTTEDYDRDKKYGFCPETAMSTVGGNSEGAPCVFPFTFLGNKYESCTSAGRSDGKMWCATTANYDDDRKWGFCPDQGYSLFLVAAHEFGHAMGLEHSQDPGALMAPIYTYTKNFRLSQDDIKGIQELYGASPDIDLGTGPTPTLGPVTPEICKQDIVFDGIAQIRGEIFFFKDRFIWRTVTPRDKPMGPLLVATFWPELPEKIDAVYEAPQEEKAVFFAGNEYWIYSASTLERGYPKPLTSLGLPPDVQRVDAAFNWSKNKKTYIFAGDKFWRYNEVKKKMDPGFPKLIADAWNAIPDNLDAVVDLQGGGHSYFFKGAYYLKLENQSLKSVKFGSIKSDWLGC
The experiment is described as follows: MMP selectivity panel, residual enzyme activity. The note with it: FIG. 5. It is filed as biochemical.
Excerpt: as §1

T2 sequence (P41245 108-730): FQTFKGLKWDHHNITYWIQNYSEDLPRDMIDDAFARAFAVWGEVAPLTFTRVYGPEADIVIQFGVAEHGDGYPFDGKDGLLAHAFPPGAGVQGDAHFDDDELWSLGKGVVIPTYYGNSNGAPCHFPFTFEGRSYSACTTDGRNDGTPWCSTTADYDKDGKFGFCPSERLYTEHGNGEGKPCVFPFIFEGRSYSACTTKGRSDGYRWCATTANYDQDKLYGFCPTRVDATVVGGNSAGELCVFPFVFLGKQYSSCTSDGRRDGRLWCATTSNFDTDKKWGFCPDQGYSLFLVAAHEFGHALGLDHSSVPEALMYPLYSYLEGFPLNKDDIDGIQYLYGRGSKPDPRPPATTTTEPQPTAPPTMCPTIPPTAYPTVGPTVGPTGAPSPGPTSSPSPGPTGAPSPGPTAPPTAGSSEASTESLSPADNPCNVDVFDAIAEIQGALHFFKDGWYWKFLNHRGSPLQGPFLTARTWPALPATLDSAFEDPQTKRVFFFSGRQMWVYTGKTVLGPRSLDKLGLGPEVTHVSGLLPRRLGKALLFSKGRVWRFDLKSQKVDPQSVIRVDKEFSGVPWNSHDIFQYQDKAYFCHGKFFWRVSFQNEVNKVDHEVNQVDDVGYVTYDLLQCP
T4 sequence (P39900 106-470): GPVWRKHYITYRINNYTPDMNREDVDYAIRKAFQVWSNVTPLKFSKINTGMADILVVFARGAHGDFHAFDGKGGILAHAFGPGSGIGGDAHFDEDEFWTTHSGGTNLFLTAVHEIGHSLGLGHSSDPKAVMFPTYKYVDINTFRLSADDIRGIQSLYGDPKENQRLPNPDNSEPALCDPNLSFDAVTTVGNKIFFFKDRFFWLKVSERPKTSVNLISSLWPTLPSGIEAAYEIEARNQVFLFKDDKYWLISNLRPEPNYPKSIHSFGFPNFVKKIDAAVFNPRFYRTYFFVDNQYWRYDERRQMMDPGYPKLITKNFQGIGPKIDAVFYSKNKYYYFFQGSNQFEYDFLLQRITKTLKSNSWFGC
T3 sequence (P08254 100-477): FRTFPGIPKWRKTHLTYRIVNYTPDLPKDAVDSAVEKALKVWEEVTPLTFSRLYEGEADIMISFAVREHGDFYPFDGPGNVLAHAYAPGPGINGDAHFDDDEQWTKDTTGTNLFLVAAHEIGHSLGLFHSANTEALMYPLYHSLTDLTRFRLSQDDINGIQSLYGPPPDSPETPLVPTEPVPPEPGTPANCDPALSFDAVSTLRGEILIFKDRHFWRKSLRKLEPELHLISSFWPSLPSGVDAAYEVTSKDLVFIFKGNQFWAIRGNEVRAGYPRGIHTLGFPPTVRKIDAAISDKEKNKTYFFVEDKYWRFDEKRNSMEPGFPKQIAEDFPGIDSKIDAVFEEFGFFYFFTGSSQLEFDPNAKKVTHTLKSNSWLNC
T6 sequence (P22894 101-467): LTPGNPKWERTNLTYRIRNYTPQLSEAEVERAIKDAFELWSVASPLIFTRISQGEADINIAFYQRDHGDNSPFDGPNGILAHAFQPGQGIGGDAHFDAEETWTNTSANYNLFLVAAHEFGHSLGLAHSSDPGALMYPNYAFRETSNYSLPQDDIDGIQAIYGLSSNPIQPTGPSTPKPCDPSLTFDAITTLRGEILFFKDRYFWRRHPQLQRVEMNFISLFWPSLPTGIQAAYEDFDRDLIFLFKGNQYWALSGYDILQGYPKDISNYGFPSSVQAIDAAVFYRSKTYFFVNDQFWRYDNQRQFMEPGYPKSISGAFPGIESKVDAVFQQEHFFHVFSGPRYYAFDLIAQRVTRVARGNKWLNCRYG

In the experiment with MMP-9 [1] (Flexchip spot signal, Fabs from the R0017 plate), “TIMP-1: endogenous MMP inhibitor, control spot on Flexchip” showed a Difference from reference of 845.8099. For the same molecule, in the experiment with MMP-9 [1] (Flexchip, Fabs), the ka entry is reported as “No Binding *” and the kd result was “No Binding *”.

B1: 539A-M0240-B03: Parental isolate (sFab; IgG); h/mMMP-9 antibody inhibitor (antibody, V domains shown)
VL: QYELTQPRSVSGSPGQSVTISCTGTSSDVGGYNYVSWYQQHPGKAPKLMIYDVSKRPSGVPDRFSGSKSGNTASLTISGLQAEDEADYYCCSYAGSYTLVFGGGTKLTVL
VH: EVQLLESGGGLVQPGGSLRLSCAASGFTFSTYQMVWVRQAPGKGLEWVSVIYPSGGPTVYADSVKGRFTISRDNSKNTLYLQMNSLRAEDTAVYYCARGEDYYDSSGPGAFDIWGQGTMVTVSS
With B1, in the experiment with mouse MMP-9, the “Inhibition of mouse MMP-9 activity (in words)” value is on record as “inhibits; also recorded: decrease or inhibit”. Also, the “Inhibition of human MMP-3 (in words)” value in the experiment with human MMP-3 is “not”. The “Inhibition of human MMP-12 (in words)” value with human MMP-12 is on record as “not”. Also, in the experiment with human MMP-14, the “Inhibition of human MMP-14 (in words)” value was “not”. In the experiment with human MMP-8, the “Inhibition of human MMP-8 (in words)” value is recorded as “not”. The “Inhibition of human MMP-9 activity (in words)” value with MMP-9 [2] (FIG. 5 / Example 12) is reported as “inhibits; also recorded: decrease or inhibit”. The “Selectivity for MMP-9 versus other MMPs tested” value with MMP-9 [2] (compared to the other human and murine MMPs tested) is given as “selective inhibitor of MMP-9”. In the experiment with human MMP-2, the “Inhibition of human MMP-2 (in words)” value is “not”.
